{"source": "patent US20030134292A1", "about": "“Thermostable DNA polymerases and methods of making same” (priority 2001, published 2003)", "molecules": {"B1": {"name": "Taq Δ271, F667Y, E681W: Taq Δ271 F667Y E681W DNA Polymerase, SEQ ID NO: 12, recombinant thermostable DNA polymerase (protein, listed as Thermus aquaticus)", "chain": "MLERLEFGSLLHEFGLLESPKALEEAPWPPPEGAFVGFVLSRKEPMWADLLALAAARGGRVHRAPEPYKALRDLKEARGLLAKDLSVLALREGLGLPPGDDPMLLAYLLDPSNTTPEGVARRYGGEWTEEAGERAALSERLFANLWGRLEGEERLLWLYREVERPLSAVLAHMEATGVRLDVAYLRALSLEVAEEIARLEAEVFRLAGHPFNLNSRDQLERVLFDELGLPAIGKTEKTGKRSTSAAVLEALREAHPIVEKILQYRELTKLKSTYIDPLPDLIHPRTGRLHTRFNQTATATGRLSSSDPNLQNIPVRTPLGQRIRRAFIAEEGWLLVALDYSQIELRVLAHLSGDENLIRVFQEGRDIHTETASWMFGVPREAVDPLMRRAAKTINYGVLYGMSAHRLSQWLAIPYEEAQAFIERYFQSFPKVRAWIEKTLEEGRRRGYVETLFGRRRYVPDLEARVKSVREAAERMAFNMPVQGTAADLMKLAMVKLFPRLEEMGARML"}}, "tested_on": "activated salmon sperm DNA", "assay": "Specific DNA polymerase activity of enzymes purified and assayed with or without Tween 20 and NP-40", "format": "biochemical", "description": "In one embodiment of the present invention, Taq Δ271 F667Y, and Taq Δ271 F667Y E681W were purified with or without detergents NP-40 & Tween-20. The butyl Sepharose chromatography elution profile for polymerase extracted without detergents was essentially identical to the profile for polymerase extracted with Tween 20 and NP-40.\nDNA polymerase activity was measured by running reactions of 50 μL containing 25 mM TAPS (tris-hydroxymethyl-methylaminopropane sulfonic acid) buffer, pH 9.3 (measured at 25° C.), 50 mM KCl, 2 mM MgCl2, 1 mM 2-mercaptoethanol, 0.2 mM each of dGTP, dCTP, dTTP, 0.2 mM [α-^33P]-dATP (0.05-0.1 Ci/mmol) and 0.4 mg/mL activated salmon sperm DNA. The reaction mixture (45 μL) was pre-heated to 74° C. and diluted polymerase (5 μL) added with thorough mixing. After 10 minutes of further incubation at 74° C., the reaction was stopped by the addition of 10 μL of 60 mM EDTA and the entire mixture placed at 0° C. Acid-precipitable radioactivity was determined on an aliquot ([…]) by diluting with 1 ml of 2 mM EDTA containing 0.05 mg/ml salmon sperm DNA and adding 1 mL of 20% (w/v) trichloroacetic acid, 2% (w/v) sodium pyrophosphate (Na4P2O7 10H2O) and incubating on ice for at least 15 minutes. Precipitated DNA was collected by filtering through 2.4 cm GFC filter disks (Schleichter and Schuell) and washed 7 times with 5ml of with 1 N HCl, 0.1 M sodium pyrophosphate. The filter was placed in 3 ml of aqueous scintillation counting fluid and ^33P-specific radioactivity determined by scintillation counting.", "data": [{"molecule": "B1", "values": [{"measurement": "Assay (%*) specific activity", "setting": "detergent in purification: 0.1% Tween 20, 0.1% NP-40, detergent in assay: 0.1% Tween 20, 0.1% NP-40 (reference, 100%)", "result": 100, "unit": "%"}, {"measurement": "Assay (%*) specific activity", "setting": "detergent in purification: 0.1% Tween 20, 0.1% NP-40, detergent in assay: None", "result": 2, "unit": "%"}, {"measurement": "Assay (%*) specific activity", "setting": "detergent in purification: None, detergent in assay: 0.1% Tween 20, 0.1% NP-40", "result": 157, "unit": "%"}, {"measurement": "Assay (%*) specific activity", "setting": "detergent in purification: None, detergent in assay: None, 100% = polymerase purified and assayed using Tween 20 and NP-40", "result": 6, "unit": "%"}]}]}
